A word on the Kd: it is the constant that tells how readily two partners part at equilibrium. For orientation: koff means the first-order rate constant of dissociation. Lower therefore signals slow dissociation. For orientation: kon means the second-order rate constant of association. As usually defined, the EC50 is the concentration at which the effect is half-maximal.

For one assay, the target named is T1, soluble TDP-43 (human, UniProt Q13148 1-414).
T1 construct: also called soluble full-length TDP-43; FL TDP-43
The assay can be described thus: SPR Biacore 8K, soluble TDP-43 immobilized on CM5, mAb injected, single-cycle kinetics. The method, then: The instrument was primed with running buffer PBS-P+ and flow cells (Fc) 1 and 2 of channels 1-8 were activated with a fresh solution of EDC/NHS (Amine Coupling Kit, 1:1 ratio of both reagents, GE Healthcare Life Sciences, BR-1006-33) at 10 μL/min for 420 sec. Soluble TDP-43 (Selvita) was diluted in sodium acetate pH 4.5 to a final concentration of 5 μg/mL and injected for 900 sec with a flow rate of 5 μL/min on Fc 2. All flow cells were quenched with 1 M ethanol amine (GE Healthcare Life Sciences, BR-1006-33), at 10 μL/min for 420 sec. Immobilization levels after ethanolamine quenching were 680 RU on all eight channels. Prior to analysis, two Startup cycles were run. Increasing mAbs concentrations were injected in single-cycle kinetics ranging from 1.2 to 100 nM, prepared from a 3-fold serial dilution in running buffer, with a contact time of 300 sec and a dissociation time of 3600 sec at a flow rate of 30 μL/min. Each cycle was followed by one regeneration using 10 mM Glycine-HCl pH 1.7 with a contact time of 30 sec at 30 μL/min, followed by a stabilization period of 300 sec. Results obtained from single-cycle kinetics were double-referenced using the blank Fc 1 and buffer cycles and evaluated using Biacore 8K evaluation software using the 1:1 kinetic fit model with RI and global Rmax. The following kinetic parameters were obtained: association rate constant (ka), dissociation rate constant (kd), affinity constant (KD) and saturation response (Rmax).
In general terms: Surface plasmon resonance follows binding to a sensor surface in real time, without labels.

The next assay has as its target T2, TP-51 peptide (human).
T2 construct: Synthetic peptide from Pepscan; also called synthetic TDP-43 peptide (TP-51)
T2 peptide: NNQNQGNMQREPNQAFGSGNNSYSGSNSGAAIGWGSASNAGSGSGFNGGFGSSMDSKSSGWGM
As to the kind of experiment: SPR Biacore 8K, mAb captured by anti-human antibody, TP-51 injected, single-cycle kinetics. The method, then: The instrument was primed with running buffer PBS-P+. Fc 1-2 of channels 1-8 (8K) were activated with a fresh solution of EDC/NHS (Amine Coupling Kit, 1:1 ratio of both reagents, GE Healthcare Life Sciences, BR-1006-33) at 10 μL/min for 420 sec and goat anti-human antibody (GE Healthcare Life Sciences, 29234600) was immobilized at 25 μg/mL in 10 mM sodium acetate pH 5 for 420 sec. Next, all Fc were quenched with 1 M ethanol amine (GE Healthcare Life Sciences, BR-1006-33), for 420 sec. Any non-covalently bound antibodies were removed by two regenerations with 10 mM Glycine-HCl pH 1.7 for 30 sec. Immobilization levels were evaluated following ethanolamine quenching (10000 RU for all channels).
Each cycle started with non-covalent capture of humanized variants which were diluted in running buffer to a final concentration of 2 μg/mL and injected for 60 sec with a flow rate of 10 μL/min. TDP-43 mAbs were captured on channels 1-8, leaving Fc 1 as a blank Fc. Capture levels were evaluated following a 120 sec stabilization period after each mAb injection and ranged from 300-500 RU.
TP-51 consists of amino acids 352-414 of TDP-43 (SEQ ID NO: 1). Injections of TP-51 peptide (Pepscan) were performed in single-cycle kinetics with increasing concentrations ranging from 1.2-100 nM prepared from serial 3-fold dilutions. Injections were performed with contact times of 300 sec/injection at a flow rate of 25 μL/min. A dissociation phase of 3600 sec followed the final injection. Sensor surface was regenerated by one injection of 10 mM Glycine-HCl pH 1.7 at a flow rate of 10 μL/min for 120 sec, followed by a stabilization period of 300 sec. Results obtained from single-cycle kinetics were double-referenced using the blank Fc 1 and buffer cycles and evaluated by Biacore 8K evaluation software with 1:1 kinetic fit model with RI and global Rmax. The following kinetic parameters were obtained: association rate constant (ka), dissociation rate constant (kd), affinity constant (KD) and saturation response (Rmax).

The target in assay [1] is T3, human TDP-43 in CSF of a healthy donor (human, UniProt Q13148 1-414, limits assumed).
T3 construct: also called TDP-43 in human CSF
The assay can be described thus: SIMOA-based target engagement assay, unbound TDP-43 in human CSF pre-incubated with increasing antibody.

Values joined by “and” are separate entries in the source; they are usually repeats but may differ in a detail not shown here. Identical values can stand only once.

T1 sequence (Q13148 whole entry): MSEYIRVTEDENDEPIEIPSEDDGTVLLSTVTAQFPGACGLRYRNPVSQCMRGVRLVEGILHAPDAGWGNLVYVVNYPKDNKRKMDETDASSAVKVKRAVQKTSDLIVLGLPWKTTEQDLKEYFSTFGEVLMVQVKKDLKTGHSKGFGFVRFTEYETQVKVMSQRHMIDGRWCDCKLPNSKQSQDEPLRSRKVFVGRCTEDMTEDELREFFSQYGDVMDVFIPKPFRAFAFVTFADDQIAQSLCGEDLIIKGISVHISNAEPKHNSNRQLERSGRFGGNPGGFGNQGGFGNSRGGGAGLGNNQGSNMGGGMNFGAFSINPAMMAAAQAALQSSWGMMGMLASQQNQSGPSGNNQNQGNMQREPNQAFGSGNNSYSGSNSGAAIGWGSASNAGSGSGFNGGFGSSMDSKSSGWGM

B1: ACI-7069-633B12-Ab1 (antibody, V domains shown)
VH: EVQLQQSGPELVKPGASVKISCKTSGFTFTEYSMHWVKQSHGKSLEWIGGINPNNGGTSYNQKFKGKATLTVDKSSSTAYMELRSLTSEDSAVYYCARESWGQGTTLTVSS
VL: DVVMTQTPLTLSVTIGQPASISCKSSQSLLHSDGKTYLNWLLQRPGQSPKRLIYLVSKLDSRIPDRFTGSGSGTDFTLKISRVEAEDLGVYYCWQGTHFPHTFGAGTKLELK
notes: also called murine parental antibody
For B1, in the assay with soluble TDP-43, the Kd is 0.328 nM, the koff is 1.7e-05 s⁻¹ and the kon was determined as 55000 M⁻¹ s⁻¹. Moreover, in the assay with TP-51 peptide, the affinity, expressed as Kd, was 1.5 nM; the koff was found to be 9.8e-05 s⁻¹; the kon worked out at 67000 M⁻¹ s⁻¹.

B2: hACI-7069-633B12-Ab1_H33L24 (antibody, V domains shown)
VH: EVQLVQSGAEVKKPGATVKISCKVSGFTFTEYSMHWVQQAPGKGLEWMGGINPNNGGTSYNQKFQGRVTITADTSTDTAYMELSSLRSEDTAVYYCARESWGQGTTVTVSS
VL: DIVMTQSPLSLPVTPGEPASISCKSSQSLLHSDGKTYLNWLLQKPGQSPQRLIYLVSKLDSRVPDRFSGSGSGTDFTLKISRVEAEDVGVYYCWQGTHFPHTFGQGTKLEIK
Consider B2, for which, in the assay with soluble TDP-43, the affinity, expressed as Kd, was 0.471 nM; the koff turned out to be 1.3e-05 s⁻¹; the kon stood at 30000 M⁻¹ s⁻¹. In the assay with TP-51 peptide, binding was put at a Kd of 2.2 nM, the koff is 0.00015 s⁻¹ and the kon was determined as 70000 M⁻¹ s⁻¹.

B3: hACI-7069-633B12-Ab1_H27L23 (antibody, V domains shown)
VH: EVQLVQSGAEVKKPGATVKISCKVSGFTFTEYSMHWVQQAPGKGLEWMGGINPNNGGTSYNQKFKGRVTITVDTSTDTAYMELSSLRSEDTAVYYCARESWGQGTTVTVSS
VL: DVVMTQSPLSLPVTPGEPASISCKSSQSLLHSDGKTYLNWLLQKPGQSPQRLIYLVSKLDSRVPDRFSGSGSGTDFTLKISRVEAEDVGVYYCWQGTHFPHTFGQGTKLEIK
In the assay with soluble TDP-43, B3 registered a Kd of 0.925 nM, a koff of 2.2e-05 s⁻¹ and an on-rate (kon) of 24000 M⁻¹ s⁻¹. In addition, in the assay with TP-51 peptide, binding was characterised by a dissociation constant (Kd) of 3.3 nM, the koff is 0.00014 s⁻¹ and the kon was found to be 42000 M⁻¹ s⁻¹.

B4: hACI-7069-633B12-Ab1_H32L24 (antibody, V domains shown)
VH: EVQLVQSGAEVKKPGATVKISCKVSGFTFTEYSMHWVQQAPGKGLEWMGGINPQNAGTSYNQKFQGRVTITADTSTDTAYMELSSLRSEDTAVYYCARESWGQGTTVTVSS
VL: DIVMTQSPLSLPVTPGEPASISCKSSQSLLHSDGKTYLNWLLQKPGQSPQRLIYLVSKLDSRVPDRFSGSGSGTDFTLKISRVEAEDVGVYYCWQGTHFPHTFGQGTKLEIK
Regarding B4, in the assay with soluble TDP-43, binding was put at a Kd of 0.716 nM, the koff is 1.5e-05 s⁻¹ and the kon is 24000 M⁻¹ s⁻¹. In the assay with TP-51 peptide, this molecule returned a Kd of 2 nM, a koff of 0.00012 s⁻¹ and a kon of 64000 M⁻¹ s⁻¹.

B5: hACI-7069-633B12-Ab1_H28L22 (antibody, V domains shown)
VH: EVQLVQSGAEVKKPGATVKISCKVSGFTFTEYSMHWVQQAPGKGLEWMGGINPNNGGTSYNQKFKGRVTITADTSTDTAYMELSSLRSEDTAVYYCARESWGQGTTVTVSS
VL: DIVMTQSPLSLPVTPGEPASISCKSSQSLLHSDGKTYLNWLLQKPGQSPKRLIYLVSKLDSRVPDRFSGSGSGTDFTLKISRVEAEDVGVYYCWQGTHFPHTFGQGTKLEIK
In the assay with soluble TDP-43, B5 yielded a Kd of 1.16 nM, a koff of 3.4e-05 s⁻¹ and an on-rate (kon) of 29000 M⁻¹ s⁻¹. In the assay with TP-51 peptide, this molecule came in with a Kd of 3.5 nM, a koff of 0.0002 s⁻¹ and a kon of 58000 M⁻¹ s⁻¹.

B6: hACI-7069-633B12-Ab1_H33L26 (antibody, V domains shown)
VH: EVQLVQSGAEVKKPGATVKISCKVSGFTFTEYSMHWVQQAPGKGLEWMGGINPNNGGTSYNQKFQGRVTITADTSTDTAYMELSSLRSEDTAVYYCARESWGQGTTVTVSS
VL: DIVMTQSPLSLPVTPGEPASISCKSSQSLLHSDAKTYLNWLLQKPGQSPQRLIYLVSKLDSRVPDRFSGSGSGTDFTLKISRVEAEDVGVYYCFQGTHFPHTFGQGTKLEIK
In the assay with soluble TDP-43, B6 displayed a Kd of 0.22 nM, a koff of 9e-06 s⁻¹ and a kon of 43000 M⁻¹ s⁻¹. In the assay with TP-51 peptide, this molecule showed a Kd of 1.6 nM, a koff of 0.00029 s⁻¹ and a kon of 160000 M⁻¹ s⁻¹.

B7: hACI-7069-633B12-Ab1_H32L27 (antibody, V domains shown)
VH: EVQLVQSGAEVKKPGATVKISCKVSGFTFTEYSMHWVQQAPGKGLEWMGGINPQNAGTSYNQKFQGRVTITADTSTDTAYMELSSLRSEDTAVYYCARESWGQGTTVTVSS
VL: DIVMTQSPLSLPVTPGEPASISCKSSQSLLHSDGKTYLNWLLQKPGQSPQRLIYLVSKLDSRVPDRFSGSGSGTDFTLKISRVEAEDVGVYYCFQGTHFPHTFGQGTKLEIK
B7: in the assay with soluble TDP-43, binding was put at a Kd of 0.143 nM, the koff came out at 5.2e-06 s⁻¹ and the kon was 36000 M⁻¹ s⁻¹. In the assay with TP-51 peptide, this molecule registered a Kd of 1 nM, a koff of 0.00012 s⁻¹ and a kon of 120000 M⁻¹ s⁻¹.

B8: hACI-7069-633B12-Ab1_H28L23 (antibody, V domains shown)
VH: EVQLVQSGAEVKKPGATVKISCKVSGFTFTEYSMHWVQQAPGKGLEWMGGINPNNGGTSYNQKFKGRVTITADTSTDTAYMELSSLRSEDTAVYYCARESWGQGTTVTVSS
VL: DVVMTQSPLSLPVTPGEPASISCKSSQSLLHSDGKTYLNWLLQKPGQSPQRLIYLVSKLDSRVPDRFSGSGSGTDFTLKISRVEAEDVGVYYCWQGTHFPHTFGQGTKLEIK
In the assay with soluble TDP-43, B8 registered an equilibrium dissociation constant (Kd) of 0.806 nM, a koff of 2.6e-05 s⁻¹ and a kon of 32000 M⁻¹ s⁻¹. In the assay with TP-51 peptide, binding was characterised by a dissociation constant (Kd) of 1.9 nM, the koff turned out to be 0.00013 s⁻¹ and the kon came out at 65000 M⁻¹ s⁻¹.

B9: hACI-7069-633B12-Ab1_H28L24 (antibody, V domains shown)
VH: EVQLVQSGAEVKKPGATVKISCKVSGFTFTEYSMHWVQQAPGKGLEWMGGINPNNGGTSYNQKFKGRVTITADTSTDTAYMELSSLRSEDTAVYYCARESWGQGTTVTVSS
VL: DIVMTQSPLSLPVTPGEPASISCKSSQSLLHSDGKTYLNWLLQKPGQSPQRLIYLVSKLDSRVPDRFSGSGSGTDFTLKISRVEAEDVGVYYCWQGTHFPHTFGQGTKLEIK
In the assay with soluble TDP-43, B9 had a Kd of 0.531 nM, a koff of 1.7e-05 s⁻¹ and an on-rate (kon) of 37000 M⁻¹ s⁻¹. Moreover, in the assay with TP-51 peptide, binding was characterised by a dissociation constant (Kd) of 2 nM, the koff was found to be 0.00013 s⁻¹ and the kon is 66000 M⁻¹ s⁻¹.

B10: hACI-7069-633B12-Ab1_H33L27 (antibody, V domains shown)
VH: EVQLVQSGAEVKKPGATVKISCKVSGFTFTEYSMHWVQQAPGKGLEWMGGINPNNGGTSYNQKFQGRVTITADTSTDTAYMELSSLRSEDTAVYYCARESWGQGTTVTVSS
VL: DIVMTQSPLSLPVTPGEPASISCKSSQSLLHSDGKTYLNWLLQKPGQSPQRLIYLVSKLDSRVPDRFSGSGSGTDFTLKISRVEAEDVGVYYCFQGTHFPHTFGQGTKLEIK
Take B10: the 50% effective concentration (EC50) in assay [1] is 0.0356 µg/mL and 0.237 nM. In the assay with soluble TDP-43, the Kd is 0.126 nM, the koff was 6.5e-06 s⁻¹ and the on-rate constant (kon) was determined as 52000 M⁻¹ s⁻¹. In the assay with TP-51 peptide, this molecule showed a Kd of 0.8 nM, a dissociation rate constant (koff) of 0.00012 s⁻¹ and a kon of 150000 M⁻¹ s⁻¹.

B11: hACI-7069-633B12-Ab1_H32L26 (antibody, V domains shown)
VH: EVQLVQSGAEVKKPGATVKISCKVSGFTFTEYSMHWVQQAPGKGLEWMGGINPQNAGTSYNQKFQGRVTITADTSTDTAYMELSSLRSEDTAVYYCARESWGQGTTVTVSS
VL: DIVMTQSPLSLPVTPGEPASISCKSSQSLLHSDAKTYLNWLLQKPGQSPQRLIYLVSKLDSRVPDRFSGSGSGTDFTLKISRVEAEDVGVYYCFQGTHFPHTFGQGTKLEIK
In the case of B11, in the assay with soluble TDP-43, the Kd stood at 0.563 nM, the koff stood at 1.7e-05 s⁻¹ and the kon amounted to 33000 M⁻¹ s⁻¹. In the assay with TP-51 peptide, the Kd amounted to 1.4 nM, the dissociation rate constant (koff) came to 0.00016 s⁻¹ and the kon was determined as 120000 M⁻¹ s⁻¹.

Values taken from US20250145695A1 (AC IMMUNE, published 2025).
